According to publication PMC6218473, “Recognition of host Clr-b by the inhibitory NKR-P1B receptor provides a basis for missing-self recognition” (Nature Communications, 2018):

B1: NKR-P1B tetramers (biotinylated NKR-P1B on streptavidin) [modified: biotin on the BirA tag; biotin on the BirA tag] [mouse] / Clr-b on transfected HEK293T cells [mouse] (parent)
chain 1: SAKLECPQDWLSHRDKCFHVSQVSNTWKECRIDCDKKGATLLLIQDQEELRFLLDSIKEKYNSFWIGLSYTLTDMNWKWINGTAFNSDVLKITGVTENGSCAAISGEKVTSEGCSSDNRWICQKELN
chain 2: MCVTKASLPMLSPTGSPQEVEVGKILQGKRHGTISPESCAKLYCYYGVIMVLTVAVIALSVALSATKTEQIPVNKTYAACPQNWIGVENKCFYFSEYPSNWTFAQAFCMAQEAQLARFDNQDELNFLMRYKANFDSWIGLHRESSEHPWKWTDNTEYNNTIPIRGEERFAYLNNNGISSTRIYSLRMWICSKLNSYSLHCQTPFFPS

Variants of: B1
Experiment: flow cytometry on cells (PE-tetramer staining)
Settings: with Clr-b on transfected HEK293T cells [mouse]; HEK293T cells stained 48 h after transfection with Clr-b pIRES2-EGFP; parent: 3.14e+03

Row | Variant | response [MFI]
1 | chain 1 E112A | 269
2 | chain 1 R119A | 238
3 | chain 1 S100A | 217
4 | chain 1 D74A | 212
5 | chain 1 N118A | 213
6 | chain 1 D117A | 232
7 | chain 1 N62A | 4880
8 | chain 1 N25A | 5680

The next lines start with the values.

Row | response [MFI] | Variant
9 | 178 | chain 1 S115A
10 | 208 | chain 1 T96A
11 | 229 | chain 1 S111A
12 | 346 | chain 1 Y61A
13 | 198 | chain 1 S116R
14 | 211 | chain 1 S116A
15 | 5900 | chain 1 V95A
